{"source": "paper PMC9352680", "about": "“A comprehensive thermodynamic model for RNA binding by the Saccharomyces cerevisiae Pumilio protein PUF4”", "binders": {"B1": {"name": "Id_ii_S2_P3E.3_K3.2_C3.2_[C-2A]_H3.2_A3.1_F3.1_T3.2_[T9A] (ssRNA)", "RNA": "UUUGAUUAAUAUGAUAUCGUUCUUUCUAUUAUAUAUAAAUUCUUUCUCGAUAUCAUAUUAAUCUUU"}, "B2": {"name": "Id_ii_S2_P3E.3_K3.2_C3.2_[T-1C]_H3.2_A3.1_F3.1_T3.2_[T9C]_[A10T] (ssRNA)", "RNA": "B1 RNA with A28C, U29C, A38C, A39U"}, "B3": {"name": "Id_ii_S2_P3E.3_K3.2_C3.2_[T-1A]_H3.2_A3.1_F3.1_T3.2_[A10C] (ssRNA)", "RNA": "B1 RNA with A28C, U29A, A38U, A39C"}, "B4": {"name": "Id_ii_S2_P3E.3_K3.2_C3.2_[T-1A]_H3.2_A3.1_F3.1_T3.2_[T9C] (ssRNA)", "RNA": "B1 RNA with A28C, U29A, A38C"}, "B5": {"name": "Id_ii_S2_P3E.3_K3.2_C3.2_[T-1G]_H3.2_A3.1_F3.1_T3.2_[T9A] (ssRNA)", "RNA": "B1 RNA with A28C, U29G"}, "B6": {"name": "Id_ii_S2_P3E.3_K3.2_C3.2_[T-1C]_H3.2_A3.1_F3.1_T3.2_[T9A] (ssRNA)", "RNA": "B1 RNA with A28C, U29C"}, "B7": {"name": "Id_ii_S2_P3E.3_K3.2_C3.2_[T-1A]_H3.2_A3.1_F3.1_T3.2_[T9C]_[A10C] (ssRNA)", "RNA": "B1 RNA with A28C, U29A, A38C, A39C"}, "B8": {"name": "Id_ii_S2_P3E.3_K3.2_C3.2_H3.2_A3.1_F3.1_T3.2_[T9C]_[A10C] (ssRNA)", "RNA": "B1 RNA with A28C, A38C, A39C"}, "B9": {"name": "Id_ii_S2_P3E.3_K3.2_C3.2_[T-1C]_H3.2_A3.1_F3.1_T3.2_[T9G]_[A10T] (ssRNA)", "RNA": "B1 RNA with A28C, U29C, A38G, A39U"}, "B10": {"name": "Id_ii_S2_P3E.3_K3.2_C3.2_[T-1C]_H3.2_A3.1_F3.1_T3.2_[T9A]_[A10G] (ssRNA)", "RNA": "B1 RNA with A28C, U29C, A39G"}, "B11": {"name": "Id_ii_S2_P3E.3_K3.2_C3.2_[T-1G]_H3.2_A3.1_F3.1_T3.2 (ssRNA)", "RNA": "B1 RNA with A28C, U29G, A38U"}, "B12": {"name": "Id_ii_S2_P3E.3_K3.2_C3.2_H3.2_A3.1_F3.1_T3.2_[T9C]_[A10G] (ssRNA)", "RNA": "B1 RNA with A28C, A38C, A39G"}, "B13": {"name": "Id_ii_S2_P3E.3_K3.2_C3.2_[T-1C]_H3.2_A3.1_F3.1_T3.2_[T9C] (ssRNA)", "RNA": "B1 RNA with A28C, U29C, A38C"}, "B14": {"name": "Id_ii_S2_P3E.3_K3.2_C3.2_[T-1G]_H3.2_A3.1_F3.1_T3.2_[T9A]_[A10G] (ssRNA)", "RNA": "B1 RNA with A28C, U29G, A39G"}, "B15": {"name": "Id_ii_S2_P3E.3_K3.2_C3.2_[T-1A]_H3.2_A3.1_F3.1_T3.2_[T9G]_[A10T] (ssRNA)", "RNA": "B1 RNA with A28C, U29A, A38G, A39U"}, "B16": {"name": "Id_ii_S2_P3E.3_K3.2_C3.2_[T-1A]_H3.2_A3.1_F3.1_T3.2_[T9A]_[A10C] (ssRNA)", "RNA": "B1 RNA with A28C, U29A, A39C"}, "B17": {"name": "Id_ii_S2_P3E.3_K3.2_C3.2_[T-1C]_H3.2_A3.1_F3.1_T3.2 (ssRNA)", "RNA": "B1 RNA with A28C, U29C, A38U"}, "B18": {"name": "Id_ii_S2_P3E.3_K3.2_C3.2_[T-1C]_H3.2_A3.1_F3.1_T3.2_[T9A]_[A10C] (ssRNA)", "RNA": "B1 RNA with A28C, U29C, A39C"}, "B19": {"name": "Id_ii_S2_P3E.3_K3.2_C3.2_[T-1C]_H3.2_A3.1_F3.1_T3.2_[T9C]_[A10C] (ssRNA)", "RNA": "B1 RNA with A28C, U29C, A38C, A39C"}, "B20": {"name": "Id_ii_S2_P3E.3_K3.2_C3.2_[T-1G]_H3.2_A3.1_F3.1_T3.2_[T9C]_[A10C] (ssRNA)", "RNA": "B1 RNA with A28C, U29G, A38C, A39C"}, "B21": {"name": "Id_ii_S2_P3E.3_K3.2_C3.2_[T-1G]_H3.2_A3.1_F3.1_T3.2_[T9G]_[A10C] (ssRNA)", "RNA": "B1 RNA with A28C, U29G, A38G, A39C"}, "B22": {"name": "Id_ii_S2_P3E.3_K3.2_C3.2_[T-1A]_H3.2_A3.1_F3.1_T3.2_[T9A]_[A10G] (ssRNA)", "RNA": "B1 RNA with A28C, U29A, A39G"}, "B23": {"name": "Id_ii_S2_P3E.3_K3.2_C3.2_[T-1C]_H3.2_A3.1_F3.1_T3.2_[T9A]_[A10T] (ssRNA)", "RNA": "B1 RNA with A28C, U29C, A39U"}}, "note": "Substitutions are numbered along the chain they refer to. Names may count otherwise."}
{"target": "T1, PUF4 RNA-binding domain (Saccharomyces cerevisiae, UniProt P25339 537-888)", "T1 sequence": "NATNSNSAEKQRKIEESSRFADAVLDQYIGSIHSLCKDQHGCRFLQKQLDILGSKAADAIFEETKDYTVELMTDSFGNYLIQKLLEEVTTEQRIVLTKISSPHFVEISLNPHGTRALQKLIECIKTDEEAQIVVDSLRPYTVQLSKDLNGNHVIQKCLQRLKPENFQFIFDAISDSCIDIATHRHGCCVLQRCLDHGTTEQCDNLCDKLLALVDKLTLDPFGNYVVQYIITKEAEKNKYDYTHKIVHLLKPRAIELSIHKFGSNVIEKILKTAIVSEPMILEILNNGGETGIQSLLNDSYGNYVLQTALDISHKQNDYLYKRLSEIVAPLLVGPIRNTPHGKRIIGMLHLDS", "assay": "Mg; RNA-MaP; 20 mM Na-HEPES pH 7.4, 30 mM KOAc, 0.75 mM MgCl2, 0.1% Tween-20, 5% glycerol, 0.1 mg/mL BSA, 2 mM DTT; 25 C; 0.0125-409.6 nM protein", "settings": "tags: N-His6-TEV cleaved; C-SNAP kept, Cy3B-labelled; label: tethered on chip by stalled RNA polymerase", "units": {"Kd": "nM"}}
{"binder": "UCUCUUUAUAUUAUCAUCUCUU (ssRNA)", "note": "[Ib_S1_P5E.1_K5.1_C5.1_H5.1_[G2A]_A5.1_F5.1_[T9C]_T5.1]", "Kd": 641}
{"binder": "B1", "Kd": 693}
{"binder": "B2", "Kd": 120}
{"binder": "B3", "Kd": 227}
{"binder": "B4", "Kd": 198}
{"binder": "B5", "Kd": 190}
{"binder": "B6", "Kd": 251}
{"binder": "B7", "Kd": 177}
{"binder": "B8", "Kd": 115}
{"binder": "B9", "Kd": 718}
{"binder": "B10", "Kd": 739}
{"binder": "B11", "Kd": 160}
{"binder": "B12", "Kd": 292}
{"binder": "B13", "Kd": 84.9}
{"binder": "B14", "Kd": 573}
{"binder": "B15", "Kd": 447}
{"binder": "B16", "Kd": 218}
{"binder": "B17", "Kd": 42.2}
{"binder": "B18", "Kd": 122}
{"binder": "B19", "Kd": 245}
{"binder": "B20", "Kd": 863}
{"binder": "B21", "Kd": 108}
{"binder": "B22", "Kd": 1090}
{"binder": "B23", "Kd": 93.1}
{"binder": "UCUCUUUAUAUUAUAAUCUCUU (ssRNA)", "note": "[Ib_S1_P5E.1_K5.1_C5.1_H5.1_[G2A]_A5.1_F5.1_[T9A]_T5.1]", "Kd": 124}
